Paper PMC3490818

Target: T1, Signal peptide peptidase (human (endogenous in HEK293)), Q8TCT9
T1 chain: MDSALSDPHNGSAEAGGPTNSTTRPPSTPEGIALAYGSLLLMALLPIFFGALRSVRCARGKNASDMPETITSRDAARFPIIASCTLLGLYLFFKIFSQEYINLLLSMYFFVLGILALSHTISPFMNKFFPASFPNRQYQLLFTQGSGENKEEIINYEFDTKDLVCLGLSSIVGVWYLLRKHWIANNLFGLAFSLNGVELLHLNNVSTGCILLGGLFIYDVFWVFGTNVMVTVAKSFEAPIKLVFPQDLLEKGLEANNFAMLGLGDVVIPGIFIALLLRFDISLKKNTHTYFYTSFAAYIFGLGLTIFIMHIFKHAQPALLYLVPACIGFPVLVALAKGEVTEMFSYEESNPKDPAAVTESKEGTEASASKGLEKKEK
Assay: native gel or EMSA; BN-PAGE of HEK293 or HEK293 vigilin-FLAG lysates solubilized in 0.5% DDM, Western blot for SPP and vigilin (or FLAG); second dimension SDS-PAGE for SPP
Settings: remark: other sources report otherwise

- stoichiometry N: 2
B1: Signal peptide peptidase, Q8TCT9 1-377 (natural protein)
chain: T1 chain
